Measured values: publication PMC5626478, “LARP4 mRNA codon-tRNA match contributes to LARP4 activity for ribosomal protein mRNA poly(A) tail length protection”

Target: LARP4-NTD (1-286) (human, UniProt Q71RC2 1-286)
Assay: EMSA; EMSA as described in Yang et al. 2011; buffer, salt, pH and temperature not given; protein in uM
Settings: protein: recombinant

Chain of LARP4-NTD (1-286) (Q71RC2 1-286): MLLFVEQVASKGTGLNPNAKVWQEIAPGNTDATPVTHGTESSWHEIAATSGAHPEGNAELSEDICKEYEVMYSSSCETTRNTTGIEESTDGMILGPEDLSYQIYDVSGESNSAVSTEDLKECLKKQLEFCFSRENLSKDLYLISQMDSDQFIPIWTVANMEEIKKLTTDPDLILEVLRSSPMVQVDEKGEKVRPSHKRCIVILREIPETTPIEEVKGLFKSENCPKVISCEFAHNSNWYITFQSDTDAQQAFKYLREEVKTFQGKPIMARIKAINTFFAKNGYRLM

Binder: AAAAAAAAAAAAAAA (ssRNA) [A15 3'-OH]
- binding result: binds
